Assay results published in patent EP3741773A1 (City of Hope, dated 2020).

Target: T1, meditope-enabled trastuzumab
T1 construct: after it there are no differences from the human heavy chain of trastuzumab; Full IgG was expressed; Labelled with Alexa dyes in FACS; also called TM; trastuzumab memab
Assay: SPR

T1 sequence (heavy, as listed by the source, chain 1 of 2): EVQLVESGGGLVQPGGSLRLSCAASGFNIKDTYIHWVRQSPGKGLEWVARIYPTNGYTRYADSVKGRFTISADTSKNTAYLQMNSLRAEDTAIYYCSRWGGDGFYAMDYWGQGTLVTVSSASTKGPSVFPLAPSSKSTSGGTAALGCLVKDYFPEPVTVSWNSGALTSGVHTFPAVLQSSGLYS
T1 sequence (light, as listed by the source, chain 2 of 2): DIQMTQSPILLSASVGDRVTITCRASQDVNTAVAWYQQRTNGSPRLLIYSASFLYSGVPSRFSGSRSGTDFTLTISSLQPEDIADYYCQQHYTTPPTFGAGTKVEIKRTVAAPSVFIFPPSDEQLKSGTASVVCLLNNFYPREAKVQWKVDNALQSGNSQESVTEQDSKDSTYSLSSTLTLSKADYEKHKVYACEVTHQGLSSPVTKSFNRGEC

B1: Protein L (other)
chain: SEVTIKVNLIFADGKIQTAEFKGTFEEATAEAYRYAALLAKVNGEYTADLEDGGNHMNIKFAG
notes: also called Protein L (only); PpL
  Kd: ~500 nM
